Assay results published in the supplement of paper PMC10126150.
± gives the standard deviation of the averaged measurements.

What follows are sequences tested on ATP (assay: switch fluorescence ratio, 500 uM ATP over buffer (Cy3 cluster intensity, sum of 5 cycles each) (fold (ratio)); higher = stronger signal-on switching upon ATP binding; sequences stand for … in TCGTCGGCAGCGTCAGATGTGTATAAGAGACAGTTTTTTTTTTTTTTTTTTTTTTTTT…TC). Conditions: aptamer strand: ATP DNA aptamer (quencher-CACCTGGGGGAGTATTGCGGAGGAAGG + anchor), 100 nM annealed; ATP concentration: 500 uM.
Outline: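 The fluorescence ratio divides summed target-cycle Cy3 intensity by summed buffer-cycle Cy3 intensity for each cluster and is averaged per switch-domain sequence. Cy3-labelled switching-strand clusters on a modified Illumina MiSeq flow-cell were annealed to 100 nM quencher-labelled ATP aptamer, then imaged in selection buffer and again after 15 min with 500 uM ATP at 22 °C. Five such cycles were run, with NaOH stripping and re-annealing between them, and clusters outside 100-1000 RFU were excluded.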
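Also: ATP exposure 15 min at 22 °C before imaging.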

Row | Sequence | switch fluorescence ratio
1 | TCATAAATTT | 1.01 ± 0.018
2 | TCATAACTGC | 1.02 ± 0.029
3 | TCATAATTAG | 1 ± 0.0068
4 | TCATAATTGA | 0.99 ± 0.012
5 | TCATACCGTA | 1.09 ± 0.022
6 | TCATACGGGG | 1.01 ± 0.023
7 | TCATAGATCG | 1.01 ± 0.027
8 | TCATAGTACG | 1.02 ± 0.043
9 | TCATAGTGTT | 1.01 ± 0.04
10 | TCATATTATG | 1.02 ± 0.034
11 | TCATATTATT | 1 ± 0.033
12 | TCATCAGCAG | 2.96 ± 1.7
13 | TCATCTAGGA | 0.985 ± 0.011
14 | TCATCTGCTG | 1.17 ± 0.087
15 | TCATGAGATT | 1.02 ± 0.021
16 | TCATGCAAAT | 1.04 ± 0.031
17 | TCATGGAATT | 1 ± 0.031
18 | TCATGGACTG | 1.06 ± 0.02
19 | TCATGGATCC | 1.01 ± 0.035
20 | TCATGGGTAA | 1.01 ± 0.029
21 | TCATGGGTGG | 0.99 ± 0.02
22 | TCATGGGTTG | 0.981 ± 0.0053
23 | TCATGGTGAT | 1.022 ± 0.0013
24 | TCATGGTTTA | 1.01 ± 0.016
25 | TCATGTAAGA | 0.998 ± 0.024
26 | TCATGTATGG | 0.977 ± 0.012

Row | Sequence | switch fluorescence ratio
27 | TCATGTTAGG | 0.994 ± 0.0075
28 | TCATGTTCGG | 1.02 ± 0.034
29 | TCATTAATAT | 1.16 ± 0.22
30 | TCATTAGAGG | 0.9942 ± 0.0067
31 | TCATTCCACT | 1.031 ± 0.0059
32 | TCATTGGGAA | 1.01 ± 0.021
33 | TCATTGGTTT | 0.998 ± 0.032
34 | TCATTTACAT | 1.04 ± 0.037
35 | TCATTTCGCC | 1.071 ± 0.0047
36 | TCATTTCGGG | 0.991 ± 0.038
37 | TCATTTGATA | 1.03 ± 0.035
38 | TCCAAGGGGG | 1.024 ± 0.0066
39 | TCCAAGGGTA | 0.997 ± 0.025
40 | TCCAAGTCGA | 1.041 ± 0.0033
41 | TCCAATCATG | 0.9765 ± 0.0095
42 | TCCACCGGCT | 1.03 ± 0.052
43 | TCCACCGTCG | 1.27 ± 0.065
44 | TCCACCGTTC | 1.66 ± 0.77
45 | TCCACGGGG | 1.12 ± 0.057
46 | TCCAGAACCC | 1 ± 0.011
47 | TCCAGGAATT | 1 ± 0.016
48 | TCCAGGGCG | 1.03 ± 0.029
49 | TCCAGGGTCA | 1.01 ± 0.025
50 | TCCAGGTCGG | 1.2 ± 0.025
51 | TCCATAGTCG | 1.03 ± 0.014
52 | TCCATGTTGA | 1.03 ± 0.019

Row | Sequence | switch fluorescence ratio
53 | TCCATTAAAA | 0.976 ± 0.036
54 | TCCATTAGTT | 1.04 ± 0.069
55 | TCCATTCCGA | 1.17 ± 0.13
56 | TCCATTTTCG | 0.984 ± 0.025
57 | TCCCAAACAT | 1.06 ± 0.009
58 | TCCCAAATTT | 0.983 ± 0.032
59 | TCCCATAAGC | 1.099 ± 0.0051
60 | TCCCATGGCG | 1.04 ± 0.062
61 | TCCCCATGGC | 1.35 ± 0.1
62 | TCCCGGGTAT | 0.9787 ± 0.0073
63 | TCCCGGTTTG | 1.009 ± 0.01
64 | TCCCGTAAGT | 1.05 ± 0.069
65 | TCCCTTTTGG | 1.011 ± 0.0029
66 | TCCGAGGGAG | 1.05 ± 0.079
67 | TCCGAGTATG | 1.08 ± 0.027
68 | TCCGATTGGG | 0.9801 ± 0.0071
69 | TCCGCCATGG | 2.71 ± 0.28
70 | TCCGCGACGG | 1.4 ± 0.2
71 | TCCGCGGTTT | 1.23 ± 0.18
72 | TCCGGACCGG | 0.995 ± 0.019
73 | TCCGGACCTC | 1.5 ± 0.34
74 | TCCGGCGGGA | 1.26 ± 0.32
75 | TCCGGCTGAG | 1.02 ± 0.012
76 | TCCGGGTATC | 1.33 ± 0.04
77 | TCCGGGTGGG | 1.09 ± 0.079
78 | TCCGGGTTTT | 0.963 ± 0.019

Row | Sequence | switch fluorescence ratio
79 | TCCGGTGTG | 0.97 ± 0.015
80 | TCCGGTTTTA | 0.981 ± 0.02
81 | TCCGGTTTTG | 0.979 ± 0.013
82 | TCCGTCAGCA | 4.04 ± 0.52
83 | TCCGTGAGTG | 1.07 ± 0.031
84 | TCCGTTTGTT | 0.991 ± 0.04
85 | TCCGTTTTGG | 1.03 ± 0.066
86 | TCCGTTTTTT | 1.04 ± 0.063
87 | TCCTAATGGG | 0.985 ± 0.025
88 | TCCTACTGTA | 1.1974 ± 0.00047
89 | TCCTACTGTT | 0.9957 ± 0.0061
90 | TCCTAGAAC | 0.997 ± 0.026
91 | TCCTAGGGGG | 1 ± 0.026
92 | TCCTCATGGT | 1 ± 0.022
93 | TCCTCCGTGG | 2.56 ± 0.59
94 | TCCTGACGTA | 1.11 ± 0.022
95 | TCCTGATGGC | 0.985 ± 0.016
96 | TCCTGCGCGT | 4.52 ± 0.71
97 | TCCTGGGCTA | 1.57 ± 0.019
98 | TCCTGGGGGA | 1.15 ± 0.22
99 | TCCTGTGCTG | 1.09 ± 0.043
100 | TCCTGTTTTT | 1.01 ± 0.056
101 | TCCTTAAAAA | 1.1 ± 0.06
102 | TCCTTAATTT | 1.02 ± 0.055
103 | TCCTTCAACT | 1.08 ± 0.045
104 | TCCTTGACTT | 1.15 ± 0.26

Row | Sequence | switch fluorescence ratio
105 | TCCTTGGAGG | 0.989 ± 0.028
106 | TCCTTTAATG | 0.9917 ± 0.0073
107 | TCCTTTAGGT | 0.993 ± 0.053
108 | TCCTTTGTGG | 1.02 ± 0.021
109 | TCGAAGAATG | 1.005 ± 0.002
110 | TCGAAGGGTT | 0.993 ± 0.028
111 | TCGAAGTAGG | 1.46 ± 0.71
112 | TCGAAGTGTT | 0.989 ± 0.027
113 | TCGACATTAT | 1.034 ± 0.0055
114 | TCGACGTCTC | 1.29 ± 0.16
115 | TCGACGTTGT | 1.1 ± 0.036
116 | TCGACGTTTG | 1.01 ± 0.011
117 | TCGACTCACT | 1.2 ± 0.013
118 | TCGAGAGATA | 1 ± 0.054
119 | TCGAGGACTA | 0.999 ± 0.032
120 | TCGAGGCGGA | 0.985 ± 0.049
121 | TCGAGGGCAG | 1.01 ± 0.029
122 | TCGAGGGGGA | 1.31 ± 0.63
123 | TCGAGTAAGG | 1.18 ± 0.28
124 | TCGAGTCATT | 0.9913 ± 0.005
125 | TCGAGTCCTA | 0.9857 ± 0.0037
126 | TCGAGTGTGC | 1.06 ± 0.021
127 | TCGAGTTCTT | 0.999 ± 0.012
128 | TCGATCCAAC | 1.064 ± 0.0065
129 | TCGATGAGGG | 1.02 ± 0.026
130 | TCGATGGCAT | 1.31 ± 0.065

Row | Sequence | switch fluorescence ratio
131 | TCGATGGCTT | 1.05 ± 0.019
132 | TCGATGGGTG | 1.01 ± 0.032
133 | TCGATGTCGT | 0.9927 ± 0.0059
134 | TCGATTAATT | 1.1 ± 0.079
135 | TCGATTTGAT | 0.98541 ± 0.00062
136 | TCGCAAAATA | 2.47 ± 1.2
137 | TCGCAATGTT | 3.58 ± 1
138 | TCGCAGGGTG | 1.43 ± 0.47
139 | TCGCCATCCT | 1.09 ± 0.019
140 | TCGCCTTTGG | 1.07 ± 0.072
141 | TCGCGAAATT | 0.9763 ± 0.0042
142 | TCGCGAAGGG | 1.01 ± 0.013
143 | TCGCGATCAG | 1.12 ± 0.042
144 | TCGCGCCGGT | 1.005 ± 0.0062
145 | TCGCGGAATT | 1.01 ± 0.066
146 | TCGCGGCAGT | 1.04 ± 0.015
147 | TCGCGGGAGA | 1.05 ± 0.023
148 | TCGCGGGGGA | 1.01 ± 0.037
149 | TCGCGGGGTG | 1.02 ± 0.056
150 | TCGCGGGTGG | 1.03 ± 0.021
151 | TCGCTACTCG | 3.07 ± 0.62
152 | TCGCTCGCAT | 3.68 ± 0.73
153 | TCGCTTACTG | 1.3 ± 0.053
